Sequences and labels used below:
B1: Azoarcus group I ribozyme (parent)
chain: GUGCCUUGCGCCGGGAAACCACGCAAGGGAUGGUGUCAAAUUCGGCGAAACCUAAGCGCCCGCCCGGGCGUAUGGCAACGCCGAGCCAAGCUUCGGCGCCUGCGCCGAUGAAGGUGUAGAGACUAGACGGCACCCACCUAAGGCAAACGCUAUGGUGAAGGCAUAGUCCAGGGAGUGGCGAAAGUCACACAAACCGG

84 variants from the RNAGym collection of RNA variant scans (doi:10.1093/molbev/msab373) can be followed below.

The variants in this data set derive from B1. Put plainly: reverse-splicing fitness (ratio to wild type); higher = more active; in vitro selection; Mg2+ level not given. Summed up: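 An in vitro group I ribozyme library with randomized positions was T7-transcribed and gel-purified. In triplicate, 10 pmol RNA in EPPS pH 7.5 was reacted with 50 pmoles of a 30-nt RNA substrate for 1 h at 37 °C across several added MgCl2 levels (1–48 mM), then stopped with EDTA. Products were reverse transcribed from a substrate-complementary primer, PCR-amplified and sequenced (HiSeq 4000). Fitness is a variant's read proportion after selection over that before, normalised to wild type.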
For the variant C82A A111U A145C C150A C169G U176C, the reverse-splicing fitness was found to be 0.0169.
The value for C82A A111U A145C C150A C169G U176A was 0.029; that for C82A A111U A120U A145C C150G C169G was 0.0039.
For C82A A111U A120U A145C C150G C169A, the reverse-splicing fitness came out at 0.00347.
The value for C82A A111U A120U A145C C150G C169U was 0.00392; that for C82A A111U A120G U176C was 0.0189.
Consider C82A A111U A120G U176A, for which the reverse-splicing fitness is 0.0127.
The value for C82A A111U A120G U176G was 0.00705; that for C82A A111U A120U A145C C150G C169G U176A was 0.00351.
In the case of C82A A111U A120U A145C C150G C169G U176G it was 0.00242.
In the case of C82A A111U A120U A145C C150G C169G U176C, the reverse-splicing fitness amounted to 0.0024.
The value for C82A A111U A120U C150U C169U U176A was 0.00662.
In the case of C82A A111U A120U C150U C169U U176G it was 0.00262.
Consider C82A A111U A120U C150U C169U U176C, for which the reverse-splicing fitness is 0.00448.
For C82A A111U A120U C150A U176A, the reverse-splicing fitness was 0.00697.
Turning to C82A A111U A120U C150A U176C, the reverse-splicing fitness was 0.00653.
For the variant C82A A111U A120U C150A U176G, the reverse-splicing fitness amounted to 0.0037.
Turning to C82A A111U A120U A145C C169G U176A, the reverse-splicing fitness was 0.00281.
The value for C82A A111U A120U A145C C169G U176G was 0.00198; that for C82A A111U A120U A145C C169G U176C was 0.00232.
The value for C82A A111U A120U A145U C169A was 0.00249; that for C82A A111U A120U A145U C169U was 0.0039; that for C82A A111U A120U A145U C169G was 0.00304.
In the case of C82A A111U A120U A145G C150G U176A, the reverse-splicing fitness worked out at 0.00697.
In the case of C82A A111U A120U A145G C150G U176C it was 0.00894.
With C82A A111U A120U A145G C150G U176G, the reverse-splicing fitness is 0.00434.
The value for C82A A111U A145C C150A C169U U176C was 0.0116; that for C82A A111U A145C C150A C169U U176G was 0.00705.
For the variant C82A A111U A145C C150A C169U U176A, the reverse-splicing fitness turned out to be 0.0155.
In the case of C82A A111U A120U A145U C150U C169G U176G it was 0.00224; in that of C82A A111U A120U A145U C150U C169G U176A, 0.00409.
The value for C82A A111U A120U A145U C150U C169G U176C was 0.00351.
With C82A A111U A145C C150U C169U U176C, the reverse-splicing fitness came out at 0.00945.
For the variant C82A A111U A145C C150U C169U U176G, the reverse-splicing fitness was 0.00661.
For the variant C82A A111U A145C C150U C169U U176A, the reverse-splicing fitness amounted to 0.0138.
Regarding C82A A111U A120U A145G, the reverse-splicing fitness is 0.0209.
As for C82A A111U A120U A145U, the reverse-splicing fitness stood at 0.0216.
Regarding C82A A111U A120U A145C, the reverse-splicing fitness turned out to be 0.0205.
With C82A A111U A120U A145G C150A C169G U176G, the reverse-splicing fitness is 0.003.
Regarding C82A A111U A120U A145G C150A C169G U176A, the reverse-splicing fitness was determined as 0.0104.
In the case of C82A A111U A120U A145G C150A C169G U176C it was 0.00688; in that of C82A A111U A145C C150G U176G, 0.00428.
In the case of C82A A111U A145C C150G U176C it was 0.0163; in that of C82A A111U A145C C150G U176A, 0.0104.
The value for C82A A111U A120U A145U C150U C169U U176C was 0.00339; that for C82A A111U A120U A145U C150U C169U U176A was 0.00333; that for C82A A111U A120U A145U C150U C169U U176G was 0.00299.
Consider C82A A111U A120G C169G U176G, for which the reverse-splicing fitness was 0.00439.
The value for C82A A111U A120G C169G U176C was 0.0234.
C82A A111U A120G C169G U176A: the reverse-splicing fitness turned out to be 0.0219.
The value for C82A A111U A145C C150U C169G was 0.00788; that for C82A A111U A145C C150U C169A was 0.0081.
The value for C82A A111U A145C C150U C169U was 0.0112; that for C82A A111U A120U A145G C150G C169G U176C was 0.00639.
The value for C82A A111U A120U A145G C150G C169G U176A was 0.00885.
Regarding C82A A111U A120U A145G C150G C169G U176G, the reverse-splicing fitness worked out at 0.00413.
C82A A111U A120U A145C C169U U176A: the reverse-splicing fitness stood at 0.00334.
In the case of C82A A111U A120U A145C C169U U176C it was 0.0036.
For the variant C82A A111U A120U A145C C169U U176G, the reverse-splicing fitness is 0.00193.
Consider C82A A111U A145C C150G C169G U176G, for which the reverse-splicing fitness was determined as 0.00637.
C82A A111U A145C C150G C169G U176C: the reverse-splicing fitness is 0.00829.
For C82A A111U A145C C150G C169G U176A, the reverse-splicing fitness was 0.00985.
Take C82A A111U A120G C150U: the reverse-splicing fitness came out at 0.0133.
Consider C82A A111U A120U C150A C169U U176C, for which the reverse-splicing fitness turned out to be 0.00489.
C82A A111U A120U C150A C169U U176G: the reverse-splicing fitness came out at 0.00224.
In the case of C82A A111U A120U C150A C169U U176A it was 0.00587; in that of C82A A111U A120G C150U C169A, 0.0106.
The value for C82A A111U A120G C150U C169G was 0.0105.
Regarding C82A A111U A120G C150U C169U, the reverse-splicing fitness was found to be 0.00932.
In the case of C82A A111U A120U A145G C150G C169U it was 0.00854; in that of C82A A111U A120U A145G C150G C169G, 0.00757; in that of C82A A111U A120U A145G C150G C169A, 0.00923.
C82A A111U A120U A145U C150G C169U U176A: the reverse-splicing fitness came to 0.00308.
In the case of C82A A111U A120U A145U C150G C169U U176G it was 0.0027.
The value for C82A A111U A120U A145U C150G C169U U176C was 0.00313.
In the case of C82A A111U A120U A145U C150A C169U it was 0.00298; in that of C82A A111U A120U A145U C150A C169G, 0.00274; in that of C82A A111U A120U A145U C150A C169A, 0.00286.
In the case of C82A A111U A120U A145G C150U C169G U176G, the reverse-splicing fitness was determined as 0.00271.
Regarding C82A A111U A120U A145G C150U C169G U176C, the reverse-splicing fitness was found to be 0.00667.
The value for C82A A111U A120U A145G C150U C169G U176A was 0.00984.
Regarding C82A A111U A120U A145G C150A C169U U176G, the reverse-splicing fitness was 0.00326.
In the case of C82A A111U A120U A145G C150A C169U U176A it was 0.00626; in that of C82A A111U A120U A145G C150A C169U U176C, 0.00543.
